Laboratory results: US20260167698A1 (ONO PHARMACEUTICAL, published 2026)

T1: human Allergin-1L (expressed on CHO cells) (human, UniProt Q7Z6M3 20-343)
T1 construct: also called MILR1; human Allergin-1L-expressing CHO cell lines
T1 sequence: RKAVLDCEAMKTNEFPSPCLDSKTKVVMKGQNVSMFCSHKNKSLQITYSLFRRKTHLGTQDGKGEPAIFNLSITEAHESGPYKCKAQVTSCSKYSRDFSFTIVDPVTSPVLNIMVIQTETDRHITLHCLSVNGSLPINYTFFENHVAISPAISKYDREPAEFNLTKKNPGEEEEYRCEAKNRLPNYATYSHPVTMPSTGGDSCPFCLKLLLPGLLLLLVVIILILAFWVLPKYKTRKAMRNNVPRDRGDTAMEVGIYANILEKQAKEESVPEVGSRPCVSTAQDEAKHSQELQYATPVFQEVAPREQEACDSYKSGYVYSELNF


Legend:
[1] = target: T1, human Allergin-1L (expressed on CHO …); assay: selected on binding by CELISA and SPR (Example 5)
Method: The purified humanized scFv was analyzed for binding to CHO cells stably expressing human Allergin-1L and monkey Allergin-1, by CELISA, respectively. In detail, the CHO cells were seeded in 96-well plates, to which diluted humanized scFv was added, and which were incubated at 37° C. After washing the CHO cells, to which diluted HRP-labeled Protein L was added, and which were incubated again at 37° C. After washing the CHO cells again, to which HRP chromogenic substrate was added, and which were incubated at room temperature, and then in which absorbance was measured. As a result, the bindings to human Allergin-1L and monkey Allergin-1 were confirmed in several clones.
Furthermore, for each humanized scFv, the binding to Fc-fused human Allergin-1L recombinant protein was analyzed by SPR method. In detail, Fc-fused human Allergin-1L recombinant protein was immobilized on a sensor chip, followed by flowing humanized scFv as an analyte into a flow cell. As a result, the bindings to human Allergin-1L were confirmed in several clones.

[2] = target: T1, human Allergin-1L (expressed on CHO …); assay: flow cytometry, binding to Allergin-1L

Binder | binding result [1] | EC50 [2]
humanized scFv Pro1571 (scFv, V domains shown, A single-chain Fv) VH: EVQLVESGGGLVQPGGSLRLSCAASGFSLSSHAMSWVRQAPGKGLEWIGTISTIDTTYYASWAKGRFTISRDNSKNTVYLQMNSLRAEDTAVYYCARLSELYTTNSYYSRWGQGTLVTVSS VL: DIQMTQSPSSLSASVGDRVTITCQASESIGSLLAWYQQKPGKAPKLLIYRASTLESGVPSRFSGSGSGTDFTLTISSLQPEDFATYYCQSYHYSSSSSYAAFGTGTKVTVLG | binds | –
humanized scFv Pro1707 (scFv, V domains shown, A single-chain Fv) VH: ESQLVESGGGLVQPGGSLRLSCAVSGIDLSSYAVGWVRQAPGKGLEWIGIIGRSGSIYYASWAKGRFTISKDNSKNTVYLQMNSLRAEDTAVYYCARDVDSRPPTGSLWGQGTLVTVSS VL: DVQMTQSPSSLSASVGDRVTITCQASQNTYSNLDWYQQKPGKAPKLLIYQASKLASGVPSRFSGSGSGTDFTLTISSLQPEDFATYYCQSTSWGSSYVGGFGTGTKVTVLG | binds | –
humanized scFv Pro1570 (scFv, V domains shown, A single-chain Fv) VH: EVQLVESGGGLVQPGGSLRLSCAASGFSLSSYAMIWVRQAPGKGLEWIGFIDTDGHTEYANWAKGRFTISRDNSKNTVYLQMNSLRAEDTAVYYCARDGDHDYWGFNLWGQGTLVTVSS VL: DIQMTQSPSSLSASVGDRVTITCQASQNIYRNLVWYQQKPGKAPKLLIYGASELESGVPSRFSGSGSGTDFTLTISSLQPEDFATYYCLSTYYISSSDNSFGTGTKVTVLG | binds | –
humanized scFv Pro1565 (scFv, V domains shown, A single-chain Fv) VH: EVQLVESGGGLVQPGGSLRLSCAASGFSLSSHAMAWVRQAPGKGLEWIGYIWSGGITEYPSWAKGRFTISRDNSKNTVYLQMNSLRAEDTAVYYCARDVHIYGDIYAFDLWGQGTLVTVSS VL: DIQMTQSPSSLSASVGDRVTITCQASQDIESYLNWYQQKPGKAPKLLIYYASTLASGVPSRFSGSGSGTDFTLTISSLQPEDFATYYCQQSYSNSDVDKNVFGTGTKVTVLG | binds | –
humanized scFv Pro1588 (scFv, V domains shown, A single-chain Fv) VH: EVQLVESGGGLVQPGGSLRLSCAASGFSLTIYTITWVRQAPGKGLEWIGTINSYGNTYYSTWAKGRFTISRDNSKNTVYLQMNSLRAEDTAVYYCARGYVDSDWYLNIWGQGTLVTVSS VL: DIQMTQSPSSLSASVGDRVTITCQSSESVYDNNYLSWYQQKPGKAPKLLIYDASRLASGVPSRFSGSGSGTDFTLTISSLQPEDFATYYCLGGYDSSGWYAAFGTGTKVTVLG | binds | –
humanized scFv Pro1742 (scFv, V domains shown, A single-chain Fv) VH: EVQLVESGGGLVQPGGSLRLSCAASGFSLNNYFMIWVRQAPGKCLEWIGIITSYHTTYFANWAKGRFTISRDNSKNTVYLQMNSLRAEDTAVYYCAPYDIYGYPTLWGQGTLVTVSS VL: DIQMTQSPSSLSASVGDRVTITCQASQSIGAYLSWYQQKPGKAPKLLIYEASTLASGVPSRFSGSGSGTDFTLTISSLQPEDFATYYCLGAYGRSSDDGTAFGCGTKVTVLG | binds | –
anti-Allergin-1 bispecific antibody #15_h_optv2 clone (bispecific antibody, human IgG1, kappa, L234A L235A, N297A, Morrison form: Fab Pro1571, scFv Pro2281) heavy: EVQLVESGGGLVQPGGSLRLSCAASGFSLSSHAMSWVRQAPGKGLEWIGTISTIDTTYYASWAKGRFTISRDNSKNTVYLQMNSLRAEDTAVYYCARLSELYTTNSYYSRWGQGTLVTVSSASTKGPSVFPLAPSSKSTSGGTAALGCLVKDYFPEPVTVSWNSGALTSGVHTFPAVLQSSGLYSLSSVVTVPSSSLGTQTYICNVNHKPSNTKVDKRVEPKSCDKTHTCPPCPAPEAAGGPSVFLFPPKPKDTLMISRTPEVTCVVVDVSHEDPEVKFNWYVDGVEVHNAKTKPREEQYASTYRVVSVLTVLHQDWLNGKEYKCKVSNKALPAPIEKTISKAKGQPREPQVYTLPPSREEMTKNQVSLTCLVKGFYPSDIAVEWESNGQPENNYKTTPPVLDSDGSFFLYSKLTVDKSRWQQGNVFSCSVMHEALHNHYTQKSLSLSPGGGGGSGGGGSAIQMTQSPSSLSARVGDRVTITCQSSESVYDNNYLSWYQQKPGKAPKLLIYDASRLASGVPSRFSGSGSGTQFTLTISSLQPEDFATYYCLGGYDSSGWYAAFGTGTKVTVLGGGGGSGGGGSGGGGSGGGGSEVQLVESGGGLVQPGGSLRLSCAASGFSLTIYTITWVRQAPGKGLEWIGTINSYGNTYYSTWAKGRFTISRDNSKNTVYLQMNSLRAEDTAVYYCARGYVDSDWYLNIWGQGTLVTVSS light: DIQMTQSPSSLSASVGDRVTITCQASESIGSLLAWYQQKPGKAPKLLIYRASTLESGVPSRFSGSGSGTDFTLTISSLQPEDFATYYCQSYHYSSSSSYAAFGQGTKVEIKRTVAAPSVFIFPPSDEQLKSGTASVVCLLNNFYPREAKVQWKVDNALQSGNSQESVTEQDSKDSTYSLSSTLTLSKADYEKHKVYACEVTHQGLSSPVTKSFNRGEC | – | 2.41 nM
anti-Allergin-1 bispecific antibody #15_h_opt clone (bispecific antibody, human IgG1, kappa, L234A L235A, N297A, Morrison form: Fab Pro1571, scFv Pro2282) heavy: EVQLVESGGGLVQPGGSLRLSCAASGFSLSSHAMSWVRQAPGKGLEWIGTISTIDTTYYASWAKGRFTISRDNSKNTVYLQMNSLRAEDTAVYYCARLSELYTTNSYYSRWGQGTLVTVSSASTKGPSVFPLAPSSKSTSGGTAALGCLVKDYFPEPVTVSWNSGALTSGVHTFPAVLQSSGLYSLSSVVTVPSSSLGTQTYICNVNHKPSNTKVDKRVEPKSCDKTHTCPPCPAPEAAGGPSVFLFPPKPKDTLMISRTPEVTCVVVDVSHEDPEVKFNWYVDGVEVHNAKTKPREEQYASTYRVVSVLTVLHQDWLNGKEYKCKVSNKALPAPIEKTISKAKGQPREPQVYTLPPSREEMTKNQVSLTCLVKGFYPSDIAVEWESNGQPENNYKTTPPVLDSDGSFFLYSKLTVDKSRWQQGNVFSCSVMHEALHNHYTQKSLSLSPGGGGGSGGGGSAIQMTQSPSSLSARVGDRVTITCQSSESVYDNNYLSWYQQKPGKAPKLLIYDASRLASGVPSRFSGSGSGTQFTLTISSLQPEDFATYYCLGGYDSSGWYAAFGCGTKVTVLGGGGGSGGGGSGGGGSGGGGSEVQLVESGGGLVQPGGSLRLSCAASGFSLTIYTITWVRQAPGKCLEWIGTINSYGNTYYSTWAKGRFTISRDNSKNTVYLQMNSLRAEDTAVYYCARGYVDSDWYLNIWGQGTLVTVSS light: DIQMTQSPSSLSASVGDRVTITCQASESIGSLLAWYQQKPGKAPKLLIYRASTLESGVPSRFSGSGSGTDFTLTISSLQPEDFATYYCQSYHYSSSSSYAAFGQGTKVEIKRTVAAPSVFIFPPSDEQLKSGTASVVCLLNNFYPREAKVQWKVDNALQSGNSQESVTEQDSKDSTYSLSSTLTLSKADYEKHKVYACEVTHQGLSSPVTKSFNRGEC | – | 2.58 nM
anti-Allergin-1 bispecific antibody #15_h clone (bispecific antibody, human IgG1, kappa, L234A L235A, N297A, Morrison form antibody: Fab from Pro1571 (S2-D), scFv from Pro1588 (S1-A) on the heavy chain C-terminus) heavy: EVQLVESGGGLVQPGGSLRLSCAASGFSLSSHAMSWVRQAPGKGLEWIGTISTIDTTYYASWAKGRFTISRDNSKNTVYLQMNSLRAEDTAVYYCARLSELYTTNSYYSRWGQGTLVTVSSASTKGPSVFPLAPSSKSTSGGTAALGCLVKDYFPEPVTVSWNSGALTSGVHTFPAVLQSSGLYSLSSVVTVPSSSLGTQTYICNVNHKPSNTKVDKRVEPKSCDKTHTCPPCPAPEAAGGPSVFLFPPKPKDTLMISRTPEVTCVVVDVSHEDPEVKFNWYVDGVEVHNAKTKPREEQYASTYRVVSVLTVLHQDWLNGKEYKCKVSNKALPAPIEKTISKAKGQPREPQVYTLPPSREEMTKNQVSLTCLVKGFYPSDIAVEWESNGQPENNYKTTPPVLDSDGSFFLYSKLTVDKSRWQQGNVFSCSVMHEALHNHYTQKSLSLSPGGGGGSGGGGSDIQMTQSPSSLSASVGDRVTITCQSSESVYDNNYLSWYQQKPGKAPKLLIYDASRLASGVPSRFSGSGSGTDFTLTISSLQPEDFATYYCLGGYDSSGWYAAFGTGTKVTVLGGGGGSGGGGSGGGGSGGGGSEVQLVESGGGLVQPGGSLRLSCAASGFSLTIYTITWVRQAPGKGLEWIGTINSYGNTYYSTWAKGRFTISRDNSKNTVYLQMNSLRAEDTAVYYCARGYVDSDWYLNIWGQGTLVTVSS light: DIQMTQSPSSLSASVGDRVTITCQASESIGSLLAWYQQKPGKAPKLLIYRASTLESGVPSRFSGSGSGTDFTLTISSLQPEDFATYYCQSYHYSSSSSYAAFGQGTKVEIKRTVAAPSVFIFPPSDEQLKSGTASVVCLLNNFYPREAKVQWKVDNALQSGNSQESVTEQDSKDSTYSLSSTLTLSKADYEKHKVYACEVTHQGLSSPVTKSFNRGEC | – | 2.37 nM
humanized scFv Pro1751 (scFv, V domains shown, A single-chain Fv) VH: EVQLVESGGGLVQPGGSLRLSCAASGIDFSSYYDMCWVRQAPGKCLEWIGCIYTGSVGELYYASWAKGRFTISRDNSKNTVYLQMNSLRAEDTAVYYCARRGSGVDDYYFNLWGQGTLVTVSS VL: DIQMTQSPSSLSASVGDRVTITCQSSQSVDNNNWLAWYQQKPGKAPKLLIYDASTLASGVPSRFSGSGSGTDFTLTISSLQPEDFATYYCQGTYYTTDWWNSFGCGTKVTVLG | binds | –
humanized scFv Pro1586 (scFv, V domains shown, A single-chain Fv) VH: EVQLVESGGGLVQPGGSLRLSCAASGIDLSYYAMNWVRQAPGKGLEWIGMIVGGGITFYANWAKGRFTISRDNSKNTVYLQMNSLRAEDTAVYYCAVGSDGGISDFNIWGQGTLVTVSS VL: DIQMTQSPSSLSASVGDRVTITCQASQSISSYLAWYQQKPGKAPKLLIYRASTLASGVPSRFSGSGSGTDFTLTISSLQPEDFATYYCQQAYSLSNVDNFFGTGTKVTVLG | binds | –
